Results as given in publication PMC8189435, “Timer-based proteomic profiling of the ubiquitin-proteasome system reveals a substrate receptor of the GID ubiquitin ligase” (Molecular Cell, 2021).

Biological target: T1, Gid1-tFT (chromosomally tagged Gid1-mCherry-sfGFP) (S. cerevisiae, UniProt P53076 1-958)
T1 construct: Gid1, subunit of the GID ubiquitin ligase complex, S. cerevisiae; endogenous locus tagged with mCherry-sfGFP; It was precipitated with anti-GFP antibodies from lysate, so other GID subunits are likely present with it; source: S. cerevisiae, chromosomally tagged (strain YMaM1083; YLZY0091 for gid5Δ), in lysate; not shown: mCherry-sfGFP timer (tFT), C-terminal, kept
T1 sequence (looked up): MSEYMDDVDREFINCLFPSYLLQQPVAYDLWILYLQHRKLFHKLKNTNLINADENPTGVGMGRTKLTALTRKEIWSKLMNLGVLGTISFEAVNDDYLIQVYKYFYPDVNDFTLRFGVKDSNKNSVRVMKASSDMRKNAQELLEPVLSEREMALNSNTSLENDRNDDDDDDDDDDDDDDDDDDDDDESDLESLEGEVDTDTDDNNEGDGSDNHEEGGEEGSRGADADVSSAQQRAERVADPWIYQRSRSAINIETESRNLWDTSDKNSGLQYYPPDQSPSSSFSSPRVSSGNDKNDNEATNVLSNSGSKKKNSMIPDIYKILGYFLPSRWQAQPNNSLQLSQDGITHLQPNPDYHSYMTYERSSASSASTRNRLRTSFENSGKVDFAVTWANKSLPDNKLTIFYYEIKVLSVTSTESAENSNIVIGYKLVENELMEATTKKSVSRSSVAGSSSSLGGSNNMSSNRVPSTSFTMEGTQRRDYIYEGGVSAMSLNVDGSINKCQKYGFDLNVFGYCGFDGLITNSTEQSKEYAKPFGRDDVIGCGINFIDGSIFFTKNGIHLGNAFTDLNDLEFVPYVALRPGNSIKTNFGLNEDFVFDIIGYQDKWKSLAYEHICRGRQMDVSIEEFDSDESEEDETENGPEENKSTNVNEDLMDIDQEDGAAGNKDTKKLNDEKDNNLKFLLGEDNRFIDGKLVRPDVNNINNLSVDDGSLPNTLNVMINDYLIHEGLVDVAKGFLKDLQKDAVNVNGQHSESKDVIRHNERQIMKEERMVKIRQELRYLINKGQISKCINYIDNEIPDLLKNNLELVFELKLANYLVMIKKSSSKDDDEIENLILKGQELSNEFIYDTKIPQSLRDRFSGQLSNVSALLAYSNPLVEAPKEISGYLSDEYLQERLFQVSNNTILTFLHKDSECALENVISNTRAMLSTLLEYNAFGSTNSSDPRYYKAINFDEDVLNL
Test: co-IP; tFT-tagged bait precipitated with rabbit anti-GFP on Dynabeads from yeast lysates (log phase, SC medium lacking histidine, 2% glucose); IP buffer 50 mM Tris-HCl pH 7.5, 100 mM NaCl, 1% Triton X-100, 2 mM EDTA; 2 h at 4°C; HA-tagged prey detected by anti-HA blot; WT or gid5Δ cells
Settings: partners not purified

relative amount of co-immunoprecipitated HA-Gid11, normalized to precipitated Gid1-tFT, in gid5Δ cells compared with the WT: 0.43 relative to WT
B1: HA-Gid11 (Ylr149c/Gid11) (natural protein, S. cerevisiae, UniProt Q99296 1-730, looked up)
chain: MTIDGTGQSKEALQDERLNTGSDKVYQNYMMPALELYDAKVSINHWQLRDCIKPGSMNQSKLYYIYDHSIRVLDTDSSVLRSPVRRHNSIQPSNSGKNSTEKTSTKGSRTTGSYISKNLHVPSEKLVEFNFKPRCFTELNGLTVCGGLIGSDDKGFPSNWNRLAQDANISLPPPSQPINISKNISFPINSHYSNPNIWKGIVEFYNQETDTMMTFTLGQFINNCVTLYDRASMQFDLFACNNDGHLYQCDVSNRDVTLVKRYADLKFPLNNASLSHDGQTMVVSGDSNKFAVYNQNELTNQFSLHYDNHPSWGSSVNRVRRIPRFALPDESEYIENIYEAPNSDHGFYNSFSENDLQFATVFQNGTCAIYDIRNMATPMAEISSTRPHSHNGAFRVCRFSYGLDDLLFISEHQGRVHVVDTRNYVNHQVIVIPDKVNMEYINERKHNTNHNFTTNNNNENESNDSKNELQGADYRSLSRRRFSLPSMPNVTTEPWITMAQRIPKKYLEPQILPFPKVMDKISNESVLFSTKGSSSSDVAHPYKRRCSFRVRRVSTSAPTADYSNNNVNASLGTPAADSIATSSSNSAPQNLIDPLILSHQQASNDVFEDDEYYEAYNDVHSTYRVSSDYHGVSARAFESFLRPPSTPDLPSDDDNFAANSRNNRGTSNFLRRPVITTQESNEFSEENNISGIDWVEDRNGSSLIIGTDYGIMRWNINSWARRSFSSYDLC
notes: Gid11 (Ylr149c), S. cerevisiae, WD40/YVTN repeat-like domain protein; the last 4 residues are printed as 727-730, so the protein ends at residue 730; also called HA-YLR149C; source: S. cerevisiae, overexpressed from plasmid pRS413-GPDpr-HA-YLR149C, in lysate; not shown: HA, N-terminal, kept
